# Literature values as cited in publication PMC3897602 (PLoS ONE, 2014).
# Conditions: in vivo, po
substance,measurement,value
biotinylation of exendin-4: biotinylated exendin-4 reported by Jin et al,apparent bioavailability,3.95%
